Source: patent US20030199671A1, “Binding molecules for Fc-region polypeptides” (priority 2001, published 2003)
Read-outs that look alike come from different tables or passages of the source. Non-standard residues stand in square brackets, D forms with d. Nle = CCCC[C@H](N)C(=O)O

Columns and labels:
Assay type in all cases: binding
human IgG1 = target: T1, human IgG1 (Homo sapiens, UniProt P01857)
T1 construct: all human subtypes derived from myeloma patients; purchased Calbiochem 400120; host or cells: myeloma patients
Procedure: (§1) In addition, the following targets, all unfractionated IgGs, were also evaluated with selected immobilized peptides for species specificity characterization in a similar format: human IgG, goat IgG, bovine IgG, and mouse IgG (Sigma, product nos. I4506, I5256, I5506, and I15381, respectively). In addition, 10 μl aliquots of hydrolyzed NHS-activated Sepharose 4 Fast Flow (Amersham Pharmacia Biotech, product no. 17-0906-01) and immobilized recombinant Protein A (RepliGen Corp., product no. IPA-400) were also assayed as negative and positive controls. IgG targets were diluted into 10 mM phosphate buffer containing 150 mM NaCl and 0.01% Tween 20, pH 7.2 (PBST) or 50 mM Tris buffer containing, 150 mM NaCl and 0.01% Tween-20, pH 7.5 (TBST). Batch (static) binding and elution studies were conducted in a 96-well assay filterplate (Millipore MultiScreen-HV, with 0.45 μm Durapore membrane, product no. MAHVN4510). The target was allowed to incubate with the resin for 1-1.5 hours with shaking at room temperature. Unbound target was collected by centrifugation of samples from the assay plate directly into a low-UV absorbing 96-well collection plate (Costar, product no. 3635 or Greiner, product no. 655801). The unbound target was then quantitated by reading the absorbance at 280 nm (normalized to 1 cm pathlength, 1.4 mg/ml A280 extinction coefficient) of the collection plate on a microplate spectrophotometer (Molecular Devices Corp., SPECTRAmax PLUS) against a buffer blank.
(§2) The percentage bound target was determined by subtracting the mass determined as unbound from the corresponding condition's control values (control non-filtered added directly to the collection plate and/or the negative control). The assay plate was washed (3×) with 200 μl of binding buffer by vacuum filtration followed by addition of 100 μl of various elution conditions (e.g.: 0.1 M sodium bicarbonate buffer, pH 8.5 and/or 0.1 M sodium citrate buffer, pH 4.0). After a 30-60 minute incubation with shaking at room temperature, the eluted target was collected by centrifugation of the assay plate into another collection plate and quantitated in a similar manner. Percent elution of total load was then determined to characterize elution recovery efficiency under various conditions. The assay plate was then washed (3×) with 200 μl of binding buffer by vacuum filtration followed by addition of a resin cleaning condition (e.g., 0.1M CAPS buffer (3-[Cyclohexylamino]-1-propane-sulfonic acid), pH 11.5, to regenerate the resin for re-use. Percentage mass balance determination was calculated to be 90-100% on average.

human IgG2 = target: T2, human IgG2 (Homo sapiens, UniProt P01859)
T2 construct: all human subtypes derived from myeloma patients; purchased Calbiochem 400122; host or cells: myeloma patients
Procedure: as §1, §2

human IgG = tested on: human IgG
Procedure: as §1, §2

IgG3 = IgG3 (Homo sapiens, UniProt P01860); set-up: all human subtypes derived from myeloma patients; purchased Calbiochem 400124; host or cells: myeloma patients
Procedure: as §1, §2

IgG4 = IgG4 (Homo sapiens, UniProt P01861); set-up: all human subtypes derived from myeloma patients; purchased Calbiochem 400126; host or cells: myeloma patients
Procedure: as §1, §2

[1] = Table 20, average ligand density 1.9 μmole/ml
[2] = peptide immobilized on NHS activated sepharose 4 fast flow, target ligand density 2.0 μmole/ml, batch filterplate, hIgG1
[3] = peptide immobilized on NHS activated sepharose 4 fast flow, target ligand density 2.0 μmole/ml, batch filterplate, hIgG2
[4] = peptide immobilized on NHS activated sepharose 4 fast flow, target ligand density 2.0 μmole/ml, batch filterplate, hIgG
[5] = peptide immobilized on NHS activated sepharose 4 fast flow, target ligand density 2.0 μmole/ml, batch filterplate, hIgG3
[6] = peptide immobilized on NHS activated sepharose 4 fast flow, target ligand density 2.0 μmole/ml, batch filterplate, hIgG4

T2 sequence (P01859 1-326 isoform P01859-1): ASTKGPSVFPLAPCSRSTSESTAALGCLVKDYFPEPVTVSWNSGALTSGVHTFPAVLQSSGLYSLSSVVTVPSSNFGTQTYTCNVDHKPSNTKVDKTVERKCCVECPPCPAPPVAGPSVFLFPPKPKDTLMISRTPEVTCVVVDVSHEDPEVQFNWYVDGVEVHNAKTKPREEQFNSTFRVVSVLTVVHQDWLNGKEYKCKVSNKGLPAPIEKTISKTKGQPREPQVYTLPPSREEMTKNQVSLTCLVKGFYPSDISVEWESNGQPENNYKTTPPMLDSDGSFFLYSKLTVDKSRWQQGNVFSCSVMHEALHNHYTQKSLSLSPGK
IgG4, sequence (P01861 1-327 isoform P01861-1): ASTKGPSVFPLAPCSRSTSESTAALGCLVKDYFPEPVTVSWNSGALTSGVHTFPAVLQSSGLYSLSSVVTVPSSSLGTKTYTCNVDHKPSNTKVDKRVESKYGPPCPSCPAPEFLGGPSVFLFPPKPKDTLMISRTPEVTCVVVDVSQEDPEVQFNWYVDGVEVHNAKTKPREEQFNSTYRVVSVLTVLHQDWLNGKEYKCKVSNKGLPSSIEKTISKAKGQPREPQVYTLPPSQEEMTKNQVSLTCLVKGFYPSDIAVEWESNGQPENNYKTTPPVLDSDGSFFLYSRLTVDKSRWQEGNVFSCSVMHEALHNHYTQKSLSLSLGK
T1 sequence (P01857 1-330 isoform P01857-1): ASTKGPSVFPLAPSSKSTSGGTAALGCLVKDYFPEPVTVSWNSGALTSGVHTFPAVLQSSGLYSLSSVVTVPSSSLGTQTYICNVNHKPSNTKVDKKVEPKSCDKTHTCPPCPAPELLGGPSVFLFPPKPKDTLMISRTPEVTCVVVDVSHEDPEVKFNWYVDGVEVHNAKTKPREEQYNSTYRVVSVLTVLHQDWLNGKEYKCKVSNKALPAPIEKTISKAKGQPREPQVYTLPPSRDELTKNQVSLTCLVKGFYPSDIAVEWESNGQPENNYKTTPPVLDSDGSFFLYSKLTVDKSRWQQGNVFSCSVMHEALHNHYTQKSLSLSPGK
IgG3, sequence (P01860 1-377 isoform P01860-1): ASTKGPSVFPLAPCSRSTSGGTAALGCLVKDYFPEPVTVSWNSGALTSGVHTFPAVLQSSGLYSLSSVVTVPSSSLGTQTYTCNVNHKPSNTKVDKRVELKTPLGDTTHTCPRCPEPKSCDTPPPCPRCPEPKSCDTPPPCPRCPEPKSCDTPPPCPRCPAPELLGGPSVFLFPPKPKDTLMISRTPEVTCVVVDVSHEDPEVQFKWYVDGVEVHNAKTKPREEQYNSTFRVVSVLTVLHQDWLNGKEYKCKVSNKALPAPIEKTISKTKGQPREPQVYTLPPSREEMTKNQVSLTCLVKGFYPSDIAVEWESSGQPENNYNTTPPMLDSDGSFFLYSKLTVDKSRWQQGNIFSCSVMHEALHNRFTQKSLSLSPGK

For “Ac-CVYTTWGELIWCDNHEPGPEGGGK-NH2 (not fully specified (bridges); printed as Ac-CVYTTWGELIWCDNHEPGPEGGGK-NH2; cysteine pairing not given here) [DX1069]”, the “Batch Binding (% Capture of Total Load) hIgG1” value (human IgG1; [1]) was 77%, the “Batch Binding (% Capture of Total Load) hIgG2” value (human IgG2; [1]) was 68% and the “Batch Binding (% Capture of Total Load) hIgG” value (human IgG; [1]) was 74%. The “Binding properties / profile relative to parent peptide” value (human IgG; batch filterplate, human IgG and subtypes) was “almost identical to those of DX249”, the “Batch Binding (% Capture of Total Load) hIgG3” value (IgG3; [1]) was 2% and the “Batch Binding (% Capture of Total Load) hIgG4” value (IgG4; [1]) was 51%.
With “Ac-EHMCVYTTWGELIWCDNHEPGPEGGGK-NH2 (not fully specified (bridges); printed as Ac-EHMCVYTTWGELIWCDNHEPGPEGGGK-NH2; cysteine pairing not given here) [DX1063]” the “Batch Binding (% Capture of Total Load) hIgG1” value (human IgG1; [1]) was 73%, the “Batch Binding (% Capture of Total Load) hIgG2” value (human IgG2; [1]) was 63% and the “Batch Binding (% Capture of Total Load) hIgG” value (human IgG; [1]) was 71%. For the same substance, the “Batch Binding (% Capture of Total Load) hIgG3” value (IgG3; [1]) was 0% and the “Batch Binding (% Capture of Total Load) hIgG4” value (IgG4; [1]) was 45%.
“Ac-GDWGECTVTSYGELIWCGGLEPGPEGGGK-NH2 (not fully specified (bridges); printed as Ac-GDWGECTVTSYGELIWCGGLEPGPEGGGK-NH2; cysteine pairing not given here) [DX1070]” was tested, and the “hIgG1 elution pH 3.0 (% of Total Load)” value (human IgG1; Table 13) was 22%, the “hIgG2 elution pH 3.0 (% of Total Load)” value (human IgG2; Table 13) was 42% and the “% IgG Capture - Batch Binding, Human IgG” value (human IgG; Table 14, average ligand density 1.8 μM/ml) was 91%. The “hIgG4 elution pH 3.0 (% of Total Load)” value (IgG4; Table 13) was 14%.
For “Ac-ERACSRDWSGALVWCAGHEPGPEGGGK-NH2 (not fully specified (bridges); printed as Ac-ERACSRDWSGALVWCAGHEPGPEGGGK-NH2; cysteine pairing not given here) [DX1141]”, the “Batch Binding (% Capture of Total Load) hIgG1” value (human IgG1; [2]) was 17%, the “Batch Binding (% Capture of Total Load) hIgG2” value (human IgG2; [3]) was 9% and the “Batch Binding (% Capture of Total Load) hIgG” value (human IgG; [4]) was 21%. For the same substance, the “Batch Binding (% Capture of Total Load) hIgG3” value (IgG3; [5]) was 0% and the “Batch Binding (% Capture of Total Load) hIgG4” value (IgG4; [6]) was 2%.
With “Ac-VCSRDWSGALVWCAGHEPGPEGGGK-NH2 (not fully specified (bridges); printed as Ac-VCSRDWSGALVWCAGHEPGPEGGGK-NH2; cysteine pairing not given here) [DX1145]” the “Batch Binding (% Capture of Total Load) hIgG1” value (human IgG1; [2]) was 74%, the “Batch Binding (% Capture of Total Load) hIgG2” value (human IgG2; [3]) was 63% and the “Batch Binding (% Capture of Total Load) hIgG” value (human IgG; [4]) was 66%. The “Batch Binding (% Capture of Total Load) hIgG3” value (IgG3; [5]) was 0% and the “Batch Binding (% Capture of Total Load) hIgG4” value (IgG4; [6]) was 42%.
With “Ac-DHMCVYTTWGELIWCDNHEPGPEGGGK-NH2 (not fully specified (bridges); printed as Ac-DHMCVYTTWGELIWCDNHEPGPEGGGK-NH2; cysteine pairing not given here) [DX1062]” the “Batch Binding (% Capture of Total Load) hIgG1” value (human IgG1; [1]) was 73%, the “Batch Binding (% Capture of Total Load) hIgG2” value (human IgG2; [1]) was 63% and the “Batch Binding (% Capture of Total Load) hIgG” value (human IgG; [1]) was 73%. For the same substance, the “Batch Binding (% Capture of Total Load) hIgG3” value (IgG3; [1]) was 0% and the “Batch Binding (% Capture of Total Load) hIgG4” value (IgG4; [1]) was 49%.
With “Ac-TCSRDWSGALVWCAGHEPGPEGGGK-NH2 (not fully specified (bridges); printed as Ac-TCSRDWSGALVWCAGHEPGPEGGGK-NH2; cysteine pairing not given here) [DX1143]” the “Batch Binding (% Capture of Total Load) hIgG1” value (human IgG1; [2]) was 88%, the “Batch Binding (% Capture of Total Load) hIgG2” value (human IgG2; [3]) was 83% and the “Batch Binding (% Capture of Total Load) hIgG” value (human IgG; [4]) was 81%. For the same substance, the “Batch Binding (% Capture of Total Load) hIgG3” value (IgG3; [5]) was 0% and the “Batch Binding (% Capture of Total Load) hIgG4” value (IgG4; [6]) was 55%.
In the case of “Ac-ACVYTTWGELIWCDNHEPGPEGGGK-NH2 (not fully specified (bridges); printed as Ac-ACVYTTWGELIWCDNHEPGPEGGGK-NH2; cysteine pairing not given here) [DX1064]”, the “Batch Binding (% Capture of Total Load) hIgG1” value (human IgG1; [1]) is reported as 70%, the “Batch Binding (% Capture of Total Load) hIgG2” value (human IgG2; [1]) is reported as 63% and the “Batch Binding (% Capture of Total Load) hIgG” value (human IgG; [1]) is reported as 73%. For the same substance, the “Batch Binding (% Capture of Total Load) hIgG3” value (IgG3; [1]) was 0% and the “Batch Binding (% Capture of Total Load) hIgG4” value (IgG4; [1]) was 39%.
“Ac-ECSRDWSGALVWCAGHEPGPEGGGK-NH2 (not fully specified (bridges); printed as Ac-ECSRDWSGALVWCAGHEPGPEGGGK-NH2; cysteine pairing not given here) [DX1144]” was tested, and the “Batch Binding (% Capture of Total Load) hIgG1” value (human IgG1; [2]) was 88%, the “Batch Binding (% Capture of Total Load) hIgG2” value (human IgG2; [3]) was 84% and the “Batch Binding (% Capture of Total Load) hIgG” value (human IgG; [4]) was 81%. For the same substance, the “Batch Binding (% Capture of Total Load) hIgG3” value (IgG3; [5]) was 0% and the “Batch Binding (% Capture of Total Load) hIgG4” value (IgG4; [6]) was 61%.
For “Ac-VCVYTTWGELIWCDNHEPGPEGGGK-NH2 (not fully specified (bridges); printed as Ac-VCVYTTWGELIWCDNHEPGPEGGGK-NH2; cysteine pairing not given here) [DX1067]”, the “Batch Binding (% Capture of Total Load) hIgG1” value (human IgG1; [1]) was 33%, the “Batch Binding (% Capture of Total Load) hIgG2” value (human IgG2; [1]) was 28% and the “Batch Binding (% Capture of Total Load) hIgG” value (human IgG; [1]) was 44%. For the same substance, the “Batch Binding (% Capture of Total Load) hIgG3” value (IgG3; [1]) was 0% and the “Batch Binding (% Capture of Total Load) hIgG4” value (IgG4; [1]) was 25%.
“Ac-[Nle]CVYTTWGELIWCDNHEPGPEGGGK-NH2 (not fully specified (bridges); printed as Ac-[Nle]CVYTTWGELIWCDNHEPGPEGGGK-NH2; cysteine pairing not given here) [DX1068]” was tested, and the “Batch Binding (% Capture of Total Load) hIgG1” value (human IgG1; [1]) was 33%, the “Batch Binding (% Capture of Total Load) hIgG2” value (human IgG2; [1]) was 25% and the “Batch Binding (% Capture of Total Load) hIgG” value (human IgG; [1]) was 36%. The “Batch Binding (% Capture of Total Load) hIgG3” value (IgG3; [1]) was 0% and the “Batch Binding (% Capture of Total Load) hIgG4” value (IgG4; [1]) was 21%.
In the case of “Ac-ACSRDWSGALVWCAGHEPGPEGGGK-NH2 (not fully specified (bridges); printed as Ac-ACSRDWSGALVWCAGHEPGPEGGGK-NH2; cysteine pairing not given here) [DX1142]”, the “Batch Binding (% Capture of Total Load) hIgG1” value (human IgG1; [2]) is reported as 66%, the “Batch Binding (% Capture of Total Load) hIgG2” value (human IgG2; [3]) is reported as 55% and the “Batch Binding (% Capture of Total Load) hIgG” value (human IgG; [4]) is reported as 57%. For the same substance, the “Batch Binding (% Capture of Total Load) hIgG3” value (IgG3; [5]) was 0% and the “Batch Binding (% Capture of Total Load) hIgG4” value (IgG4; [6]) was 39%.
